Laboratory results published in doi:10.1101/2023.07.25.550441.

Columns and labels:
Assay in all cases: SPR
[1] = biological target: Asgard UEV (the UEV of UEV-Vps23 and UEV-Vps28), as tested against Asgard ubiquitin
[2] = biological target: Helarchaeia RING E3 (N-loopΔ), truncated E3 that lacks the N-loop (residues 1-19) (Helarchaeota)
[3] = biological target: Helarchaeia full-length RING E3 (Helarchaeota)

Row | Substance | Kd [1] | Kd [2] | Kd [3]
1 | Asgard ubiquitin, as tested against Asgard UEV | 0.674 to 7.15 µM | – | –
2 | Helarchaeia UEV (residues 1-132) of UEV-Vps23 (domain or fragment) | – | 8140 µM | 257 µM
